Residue numbers refer to the chain shown, from its start.
T1: soluble heterodimeric hCD3ε/δ.mFc protein (human)
T1 construct: also called soluble human CD3; soluble heterodimeric CD3 protein
T1 chain 1: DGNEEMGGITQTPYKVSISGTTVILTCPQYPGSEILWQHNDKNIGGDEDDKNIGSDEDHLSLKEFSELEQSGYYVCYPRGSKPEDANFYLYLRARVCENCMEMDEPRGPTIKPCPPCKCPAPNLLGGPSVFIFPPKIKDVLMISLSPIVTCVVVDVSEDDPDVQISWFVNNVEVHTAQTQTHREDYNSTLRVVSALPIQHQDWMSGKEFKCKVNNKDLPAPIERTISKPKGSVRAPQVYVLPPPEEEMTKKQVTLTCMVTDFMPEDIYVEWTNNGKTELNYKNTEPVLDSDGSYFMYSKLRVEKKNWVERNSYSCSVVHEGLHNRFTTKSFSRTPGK
T1 chain 2: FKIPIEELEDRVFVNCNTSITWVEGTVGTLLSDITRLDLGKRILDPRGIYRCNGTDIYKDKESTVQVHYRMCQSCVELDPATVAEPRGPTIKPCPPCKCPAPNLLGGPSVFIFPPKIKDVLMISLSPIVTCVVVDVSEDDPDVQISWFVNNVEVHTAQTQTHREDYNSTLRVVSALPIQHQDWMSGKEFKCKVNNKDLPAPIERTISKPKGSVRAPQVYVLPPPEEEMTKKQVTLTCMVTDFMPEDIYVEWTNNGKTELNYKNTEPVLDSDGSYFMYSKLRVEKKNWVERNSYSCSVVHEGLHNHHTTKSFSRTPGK

B1: BSPSMA/CD3-004 (bispecific antibody, IgG4, V domains shown)
VH 1: QVQLVESGGGVVQPGRSLRLSCAASGFTFSSYGMHWVRQAPGKGLEWVAVISYAGNNKYYADSVKGRFTVSRDNSKKTLYLQMNSLRSEDTAVYYCAKDSYYDFLTDPDVLDIWGQGTMVTVSS
VH 2: EVQLVESGGGLVQPGRSLRLSCAASGFTFDDYSMHWVRQAPGKGLEWVSGISWNSGSIGYADSVKGRFTISRDNAKNSLYLQMNSLRAEDTALYYCAKDGSGYGKFYYYGMDVWGQGTTVTVSS
VL: DIQMTQSPSSLSASVGDSVTITCRASQSINNYLNWYQQKPGKAPKLLIYTASSLLSGVPSRFSGSGSGTDFTLTISGLHPEDFATYFCQQSFSTPPITFGQGTRLDIK
notes: modified (chimeric) IgG4 Fc domain; also called PSMA-VH-11810 x CD3-VH-G5
B2: BSPSMA/CD3-003 (bispecific antibody, IgG4, V domains shown)
VH 1: B1 VH 1
VH 2: B1 VH 2 with I58K, D99Y, Y108H, M111L
VL: B1 VL
notes: modified (chimeric) IgG4 Fc domain; also called PSMA-VH-11810 x CD3-VH-G
B3: BSPSMA/CD3-005 (bispecific antibody, IgG4, V domains shown)
VH 1: B1 VH 1
VH 2: B1 VH 2 with D99Y
VL: B1 VL
notes: modified (chimeric) IgG4 Fc domain; also called PSMA-VH-11810 x CD3-VH-G20
B4: BSPSMA/CD3-200 (bispecific antibody, IgG4, V domains shown)
VH 1: B1 VH 1
VH 2: B1 VH 2 with S33A, K105Y
VL: B1 VL
notes: modified (chimeric) IgG4 Fc domain; also called PSMA-VH-11810 x CD3-VH-G2
B5: BSPSMA/CD3-300 (bispecific antibody, IgG4, V domains shown)
VH 1: B1 VH 1
VH 2: B1 VH 2 with K105Y
VL: B1 VL
notes: modified (chimeric) IgG4 Fc domain; also called PSMA-VH-11810 x CD3-VH-G3
B6: BSPSMA/CD3-400 (bispecific antibody, IgG4, V domains shown)
VH 1: B1 VH 1
VH 2: B1 VH 2 with S33A
VL: B1 VL
notes: modified (chimeric) IgG4 Fc domain; also called PSMA-VH-11810 x CD3-VH-G4
B7: BSPSMA/CD3-800 (bispecific antibody, IgG4, V domains shown)
VH 1: B1 VH 1
VH 2: B1 VH 2 with D99Y, Y108H, M111L
VL: B1 VL
notes: modified (chimeric) IgG4 Fc domain; also called PSMA-VH-11810 x CD3-VH-G8
B8: BSPSMA/CD3-900 (bispecific antibody, IgG4, V domains shown)
VH 1: B1 VH 1
VH 2: B1 VH 2 with I58K, Y108H, M111L
VL: B1 VL
notes: modified (chimeric) IgG4 Fc domain; also called PSMA-VH-11810 x CD3-VH-G9
B9: BSPSMA/CD3-1000 (bispecific antibody, IgG4, V domains shown)
VH 1: B1 VH 1
VH 2: B1 VH 2 with I58K, D99Y, M111L
VL: B1 VL
notes: modified (chimeric) IgG4 Fc domain; also called PSMA-VH-11810 x CD3-VH-G10
B10: BSPSMA/CD3-1100 (bispecific antibody, IgG4, V domains shown)
VH 1: B1 VH 1
VH 2: B1 VH 2 with I58K, D99Y, Y108H
VL: B1 VL
notes: modified (chimeric) IgG4 Fc domain; also called PSMA-VH-11810 x CD3-VH-G11
B11: BSPSMA/CD3-1300 (bispecific antibody, IgG4, V domains shown)
VH 1: B1 VH 1
VH 2: B1 VH 2 with D99Y, M111L
VL: B1 VL
notes: modified (chimeric) IgG4 Fc domain; also called PSMA-VH-11810 x CD3-VH-G13
B12: BSPSMA/CD3-1400 (bispecific antibody, IgG4, V domains shown)
VH 1: B1 VH 1
VH 2: B1 VH 2 with D99Y, Y108H
VL: B1 VL
notes: modified (chimeric) IgG4 Fc domain; also called PSMA-VH-11810 x CD3-VH-G14
B13: BSPSMA/CD3-1700 (bispecific antibody, IgG4, V domains shown)
VH 1: B1 VH 1
VH 2: B1 VH 2 with I58K, D99Y
VL: B1 VL
notes: modified (chimeric) IgG4 Fc domain; also called PSMA-VH-11810 x CD3-VH-G17
B14: BSPSMA/CD3-1800 (bispecific antibody, IgG4, V domains shown)
VH 1: B1 VH 1
VH 2: B1 VH 2 with M111L
VL: B1 VL
notes: modified (chimeric) IgG4 Fc domain; also called PSMA-VH-11810 x CD3-VH-G18

Each binder was assayed against T2, human CD3 on CD3-expressing cells (Jurkat, human T cells) (human, UniProt P07766 23-207; P04234 22-171) (assay: FACS on Jurkat cells).
T2 construct: On cells CD3 stands within the T cell receptor complex (also gamma and zeta chains); also called human CD3 expressing Jurkat cells
Description: (§1) Briefly, 2×10⁵ cells/well of human CD3-expressing Jurkat, cynomolgus T, or human PSMA-specific expressing cells were incubated with a serial dilution of bispecific antibodies for 30 min at 4° C. After incubation, cells were washed and a goat F(ab′)₂ anti-human Fcγ PE labeled secondary (Jackson Immunolabs) was added to the cells for an additional 30 min. Next, cells were washed, re-suspended in cold PBS+1% BSA and analyzed via flow cytometry on a BD FACS Canto II.
(§2) For FACS analysis, cells were gated by forward scatter height vs. forward scatter area for single events selection, followed by side and forward scatters. The EC₅₀ for cell binding titration was determined using Prism software. Values were calculated using 4-parameter non-linear regression analysis.

Row | Binder | EC50 [nM] | binding result
1 | B1 | ~1000 | 
2 | B2 | 16.5 | 
3 | B3 | 210 | 
4 | B4 |  | no binding
5 | B5 |  | no binding
6 | B6 |  | no binding
7 | B7 | 19.3 | 
8 | B8 | 274 | 
9 | B9 | 277 | 
10 | B10 | 18.3 | 
11 | B11 | 102 | 
12 | B12 | 31.9 | 
13 | B13 | 200 | 
14 | B14 | 126 | 

What follows are binders tested against T3, human PSMA on PSMA-expressing cells (human, UniProt Q04609 1-750) (assay: cell-based or functional assay).
T3 sequence (Q04609 whole entry): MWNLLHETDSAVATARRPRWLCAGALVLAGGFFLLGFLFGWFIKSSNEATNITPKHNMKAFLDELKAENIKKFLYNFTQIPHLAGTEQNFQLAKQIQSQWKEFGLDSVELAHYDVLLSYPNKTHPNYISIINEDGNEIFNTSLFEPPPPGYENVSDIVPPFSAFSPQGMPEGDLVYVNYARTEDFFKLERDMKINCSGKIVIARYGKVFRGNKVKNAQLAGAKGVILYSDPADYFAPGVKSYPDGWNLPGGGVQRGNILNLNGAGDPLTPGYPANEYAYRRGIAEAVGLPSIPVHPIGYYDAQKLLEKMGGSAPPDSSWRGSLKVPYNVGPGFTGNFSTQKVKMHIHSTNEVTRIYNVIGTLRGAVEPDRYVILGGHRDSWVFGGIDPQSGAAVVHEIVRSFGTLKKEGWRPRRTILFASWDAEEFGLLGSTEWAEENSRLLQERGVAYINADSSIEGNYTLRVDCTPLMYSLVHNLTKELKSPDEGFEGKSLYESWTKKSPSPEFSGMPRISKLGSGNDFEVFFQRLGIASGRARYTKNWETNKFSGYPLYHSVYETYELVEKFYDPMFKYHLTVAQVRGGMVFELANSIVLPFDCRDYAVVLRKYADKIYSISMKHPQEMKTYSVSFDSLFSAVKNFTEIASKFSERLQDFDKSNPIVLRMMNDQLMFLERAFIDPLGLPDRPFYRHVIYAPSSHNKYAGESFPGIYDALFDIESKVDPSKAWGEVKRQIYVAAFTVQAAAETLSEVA

Row | Binder | 22RV1 Cell depletion EC50 [pM] | C4-2 Cell depletion EC50 [pM] | TrampC2.PSMA Cell depletion EC50 [pM]
15 | B1 | 6.31 | 21.5 | 11.5
16 | B2 |  | 10.3 | 6.43
17 | B3 | 8.32 | 13.9 | 
18 | B7 |  |  | 9.27
19 | B8 |  |  | 3.5
20 | B9 |  |  | 5.97
21 | B10 |  |  | 3.86
22 | B11 |  | 8.74 | 
23 | B13 | 2.07 | 7.37 | 

Each binder was assayed against T2, human CD3 on CD3-expressing cells … (assay: cell-based or functional assay).
Target sequence in this assay (P07766 23-207 limits assumed, chain 1 of 2): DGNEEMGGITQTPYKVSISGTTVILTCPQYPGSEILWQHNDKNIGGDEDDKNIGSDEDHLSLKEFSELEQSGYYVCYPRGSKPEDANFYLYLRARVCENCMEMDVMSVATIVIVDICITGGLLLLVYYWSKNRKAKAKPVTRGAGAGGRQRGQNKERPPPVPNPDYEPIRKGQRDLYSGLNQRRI
Target sequence in this assay (P04234 22-171 limits assumed, chain 2 of 2): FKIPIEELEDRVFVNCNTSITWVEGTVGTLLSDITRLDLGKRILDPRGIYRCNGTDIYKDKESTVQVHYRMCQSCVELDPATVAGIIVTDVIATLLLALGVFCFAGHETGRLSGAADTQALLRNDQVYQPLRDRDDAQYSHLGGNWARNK

Row | Binder | T cell activation EC50 [pM]
24 | B1 | 13.4
25 | B2 | 1.23
26 | B3 | 6.11
27 | B5 | 18.5
28 | B7 | 1.76
29 | B8 | 1.12
30 | B9 | 1.28
31 | B10 | 1.11
32 | B11 | 2.31
33 | B13 | 3.89

These binders were tested against T4, cynomolgus CD3 on cynomolgus T cells (cynomolgus, UniProt Q95LI5 22-198; Q95LI8 22-171) (assay: FACS on cynomolgus T cells).
T4 construct: whole, on cells; also called Cyno T-cells; monkey T-cells
T4 sequence (Q95LI5 22-198, form in doubt, chain 1 of 2): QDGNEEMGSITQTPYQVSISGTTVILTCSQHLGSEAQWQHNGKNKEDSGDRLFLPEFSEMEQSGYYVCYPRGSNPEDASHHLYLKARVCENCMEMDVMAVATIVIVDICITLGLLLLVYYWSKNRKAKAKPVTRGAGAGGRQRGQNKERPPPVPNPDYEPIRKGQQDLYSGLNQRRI
T4 sequence (Q95LI8 22-171, form in doubt, chain 2 of 2): as the sequence (P04234 22-171 limits assumed, chain 2 of 2) above, with I5V, N15K, I20V, S32T, D33N, I34N, T64A, S74N, V83L, H141R counted along it
Description: as §1, §2

Row | Binder | EC50 [nM]
34 | B2 | 14.2
35 | B3 | 6140
36 | B7 | 19.6
37 | B10 | 890
38 | B11 | 2170
39 | B12 | 170
40 | B13 | 3350

These binders were tested against T3, human PSMA on PSMA-expressing cells (assay: FACS on B16F10.9/PSMA cells).
Description: as §1, §2

Row | Binder | EC50 [nM]
41 | B1 | 1.31
42 | B2 | 2.26
43 | B3 | 2.09
44 | B4 | 1.88
45 | B5 | 1.9
46 | B6 | 1.72
47 | B7 | 1.31
48 | B8 | 1.43
49 | B9 | 1.19
50 | B10 | 1.03
51 | B11 | 1.25
52 | B12 | 1.3
53 | B13 | 1.34
54 | B14 | 2.16

Target: T1, soluble heterodimeric hCD3ε/δ.mFc …
Experiment: SPR MASS-1, 37 C, antigen-capture format
Description: (§3) Measurements were conducted on a Sierra Sensors MASS-1 instrument.
(§4) In the antigen-capture format, the MASS-1 high-density amine sensor surface was derivatized with a goat anti-mouse IgG2a polyclonal antibody (Southern Biotech). Soluble heterodimeric CD3 protein was captured and the respective antibodies were injected over the captured antigen.
(§5) Kinetic association (kₐ) and dissociation (kd) rate constants were determined by processing and fitting the data to a 1:1 binding model using MASS-1 AnalyserR2 curve fitting software. Binding dissociation equilibrium constants (KD) and dissociative half-lives (t_{1/2}) were calculated from the kinetic rate constants as: KD (M)=kd/kₐ; and t_{1/2} (min)=(ln 2/(60*kd).

Row | Binder | binding result
55 | B1 | no binding
56 | B4 | no binding
57 | B5 | no binding
58 | B6 | no binding
59 | B14 | no binding

Target: T1, soluble heterodimeric hCD3ε/δ.mFc …
Experiment: SPR MASS-1, 37 C, antigen-capture (hCD3ε/δ.mFc captured), antibody injected
Description: as §3, §4, §5

Row | Binder | Kd [nM] | T½ [min] | koff [s⁻¹] | kon [M⁻¹ s⁻¹]
60 | B3 | 334 | 2 | 0.00577 | 17300
61 | B7 | 19.4 | 10 | 0.00115 | 59500
62 | B8 | 113 | 2.3 | 0.00495 | 43800
63 | B9 | 185 | 1.8 | 0.00637 | 34400
64 | B10 | 11.1 | 11.3 | 0.00102 | 92100
65 | B11 | 122 | 4.7 | 0.00248 | 20300
66 | B12 | 53.3 | 3.5 | 0.00331 | 62100
67 | B13 | 65.2 | 3.8 | 0.00307 | 47000
